Reference: article PMC9050506 (RSC Advances, 2020)

Columns and labels:
[1] = test system: dimannosylated peptide P2 (DM); format: binding
[2] = binding partner not given; cited from earlier work

CVN2L0-V2: CVN2L0 variant with one C58E–C73R substitution, three disulfide bonds
Rmax, binding to DM ([1]; SPR sensorgrams Fig. 3E-F): 132 RU

B1: CVN2L0-V4: CVN2L0 variant with Cys–Cys mutagenesis to Trp–Met and Glu–Arg, two disulfide bonds (protein)
chain: LGKFSQTCYNSAIQGSVLTSTCERTNGGYNTSSIDLNSVIENVDGSLKWQPSNFIETWRNTQLAGSSELAAEMKTRAQQFVSTKINLDDHIANIDGTLKYELGKFSQTCYNSAIQGSVLTSTCERTNGGYNTSSIDLNSVIENVDGSLKWQPSNFIETERNTQLAGSSELAAERKTRAQQFVSTKINLDDHIANIDGTLKYE
modifications: left off: His6, N-terminal, state not stated
binding to DM (in words) ([1]; SPR, listed as V4): showed binding

B2: wild-type CV-N: 11 kDa lectin originating from Nostoc ellipsosporum (protein, UniProt P81180 1-101, looked up)
Cyanovirin-N: LGKFSQTCYNSAIQGSVLTSTCERTNGGYNTSSIDLNSVIENVDGSLKWQPSNFIETCRNTQLAGSSELAAECKTRAQQFVSTKINLDDHIANIDGTLKYE
Kd [2]: 5.7 nM
